The target in experiment [1] is human CD40 expressed on HT1080-CD40 transfectants (human) (UniProt P25942).
The target in experiment [2] is T1, CD40-GpL, the CD40 ectodomain with a C-terminal Gaussia princeps luciferase (GpL) reporter domain (Homo sapiens, UniProt P25942).
T1 construct: extracellular domain of CD40 with its cysteine-rich domains (CRDs); also called CD40(ed)-GpL; source: HEK293T, transfected, cell culture supernatant; not shown: Gaussia princeps luciferase (GpL), C-terminal, kept
In words: plate binding assay with Gaussia luciferase (GpL) fusion proteins; plates coated with 1 µg/ml protein G, loaded with anti-CD40 antibodies (1 µg/ml, in medium); GpL-linked CD40 ectodomain and its deletion mutants added for 1 hour at 37°C; TNFR2(ed)-GpL values subtracted as unspecific binding. The conditions noted are these: partners not purified.

T1 sequence (P25942 21-193): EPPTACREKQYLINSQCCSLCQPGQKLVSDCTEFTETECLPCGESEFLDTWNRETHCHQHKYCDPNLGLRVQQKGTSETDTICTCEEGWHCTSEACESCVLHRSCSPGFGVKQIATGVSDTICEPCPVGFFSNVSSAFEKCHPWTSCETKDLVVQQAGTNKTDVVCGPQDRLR
human CD40 expressed on HT1080-CD40 transfectants (human), sequence (P25942 21-277): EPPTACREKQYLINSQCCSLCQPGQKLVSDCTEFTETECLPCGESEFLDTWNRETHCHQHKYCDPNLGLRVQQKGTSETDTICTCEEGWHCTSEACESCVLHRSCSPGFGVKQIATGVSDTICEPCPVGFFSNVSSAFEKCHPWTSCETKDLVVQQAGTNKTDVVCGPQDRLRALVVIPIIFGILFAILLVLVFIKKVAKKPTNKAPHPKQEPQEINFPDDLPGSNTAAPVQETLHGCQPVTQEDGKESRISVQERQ

As to APX005M-IgG1 (N297A-RGY) (antibody), the p100 processing and TRAF1 induction (western blot) in U2OS cells; concentration from which the response starts in experiment [1] was less than 100 ng/mL.

B1: G28.5-IgG1 (antibody, V domains shown)
VH: DIQLQQSGPGLVKPSQSLSLTCSVTGYSITTNYNWNWIRQFPGNKLEWMGYIRYDGTSEYTPSLKNRVSITRDTSMNQFFLRLTSVTPEDTATYYCARLDYWGQGTLVTVSS
VL: DIVMTQNPLSLPVSLGDEASISCRSSQSLENSNGNTFLNWFFQKPGQSPQLLIYRVSNRFSGVPDRFSGSGSGTDFTLKISRVEAEDLGVYFCLQVTHVPYTFGGGTTLEIK
notes: VH of G28.5; constant region of the IgG1 heavy chain; IgG1; source: HEK293T, transfected, cell culture supernatant
For B1, the binding result in experiment [2] is “binds”.

B2: ADC-1013-IgG1 (antibody, V domains shown)
VH: EVQLLESGGGLVQPGGSLRLSCAASGFTFSTYGMHWVRQAPGKGLEWLSYISGGSSYIFYADSVRGRFTISRDNSENALYLQMNSLRAEDTAVYYCARILRGGSGMDLWGQGTLVTVSS
VL: QSVLTQPPSASGTPGQRVTISCTGSSSNIGAGYNVYWYQQLPGTAPKLLIYGNINRPSGVPDRFSGSKSGTSASLAISGLRSEDEADYYCAAWDKSISGLVFGGGTKLTVL
notes: constant region of the IgG1 heavy chain; IgG1; also called Mitazalimab; source: HEK293T, transfected, cell culture supernatant
With B2, the binding result in experiment [2] was “binds”.

B3: APX005M-IgG1 (antibody, V domains shown)
VH: QSLEESGGDLVKPGASLTLTCTASGFSFSSTYVCWVRQAPGKGLEWIACIYTGDGTNYSASWAKGRFTISKPSSTTVTLQMTSLTPADTATYFCARPDITYGFAINFWGPGTLVTVSS
VL: DIVMTQTPSSASEPVGGTVTIKCQASQSISSRLAWYQQKPGQPPKLLIYRASTLASGVPSRFKGSGSGTEFTLTISDLECADAATYYCQCTGYGISWPIGGGTEVVVK
notes: VH of APX005M; constant region of the IgG1 heavy chain; IgG1; also called Sotigalimab; anti-CD40(APX); source: HEK293T, transfected, cell culture supernatant
B3: the binding result in experiment [2] was “binds”.

Values taken from PMC10793706, “Genetically engineered IgG1 and nanobody oligomers acquire strong intrinsic CD40 agonism” (Bioengineered, 2024).
